From publication PMC6130075, “Engineering of 3-ketosteroid-∆^1-dehydrogenase based site-directed saturation mutagenesis for efficient biotransformation of steroidal substrates” (Microbial Cell Factories, 2018)
Where a chain is given by its changes, count along the chain named. Numbers in names are those of the source.

B1: KsdD3 (3-ketosteroid-∆^1-dehydrogenase) (Pimelobacter simplex; W299A) (protein)
chain: MDWAEEYDVLVAGSGAGGMAGTYTAAREGLSVCLVEAGDKFGGTTAYSGGGGAWFPANPVLLRAGTDDTIEDALEYYRAVVGDRTPADLQETYVRGGAGLVAYLEEDDHFSFESYPWPDYFGDAPKARRDGQRHIIPTPLPVPSAPELREVVRGPLDNDRLGTPQPDDLFIGGRALVARFLTALATYPHATLVRETALAELVVEDGVVVGAIVETDGVRRAIRARRGVLLAAGGFEANDELRQKYGVPGVARDTMGPPTNVGAAHQAAIAVGADTDLMGEAWWSPGLTHPDGRSAFALAFTGGIFVDGAGRRFVNESAPYDRLGRAVIDHLTEGGVTPRYWMVYDHKEGSIPPVRATNVSMVDEEQYVAAGLWHTADTLPELAALIGVPADALVATVARFNELVADGYDADFGRGGEAYDRFFSGGEPPLVSIDEGPFHAAAFGISDLGTKGGLRTDTSARVLTADGTPIGGLYAAGNTMAAPSGTTYPGGGNPIGTSMLFSHLAVRHMGTEDAR
notes: full-length, N-terminal His6 tag (pET28a NdeI/EcoRI), E. coli BL21(DE3), Ni-NTA purified
B2: KsdD3 (3-ketosteroid-∆^1-dehydrogenase) (Pimelobacter simplex; W299G) (protein)
chain: B1 chain with A299G
B3: KsdD3 (3-ketosteroid-∆^1-dehydrogenase) (Pimelobacter simplex) (protein)
chain: B1 chain with A299W
notes: as for B1

Assays:
[1] = target: T1, KsdD3 (3-ketosteroid-∆^1-dehydrogenase) (Pimelobacter simplex, UniProt P77815); experiment: PMS/DCPIP reduction at […] nm, Michaelis-Menten fit; format: biochemical; conditions: 50 mM Tris-HCl pH 7.5, 30 °C, 1.5 mM PMS, 40 µM DCPIP, 2% methanol
T1 construct: gene KR76_27115; full-length, N-terminal His6 tag (pET28a NdeI/EcoRI), E. coli BL21(DE3), Ni-NTA purified

[2] = target: T2, KsdD3 (3-ketosteroid-∆^1-dehydrogenase) (Pimelobacter simplex, UniProt P77815, W299A); experiment: PMS/DCPIP reduction at […] nm, Michaelis-Menten fit; format: biochemical; conditions: 50 mM Tris-HCl pH 7.5, 30 °C, 1.5 mM PMS, 40 µM DCPIP, 2% methanol
T2 construct: gene KR76_27115; full-length, N-terminal His6 tag (pET28a NdeI/EcoRI), E. coli BL21(DE3), Ni-NTA purified

purified protein [3] = substrate: C[C@]12CCC(=O)C=C1CC[C@@H]1[C@@H]2C(=O)C[C@@]2(C)[C@H]1CC[C@]2(O)C(=O)CO; experiment: purified protein; conditions: 50 mM Tris-HCl pH 7.5, 30 °C, 1.5 mM PMS, 40 µM DCPIP, 2% methanol
purified protein [4] = substrate: CC(=O)OCC(=O)[C@@]1(O)CC[C@H]2[C@@H]3CCC4=CC(=O)CC[C@]4(C)[C@H]3C(=O)C[C@@]21C; experiment: purified protein; format: biochemical, Pimelobacter simplex; conditions: 50 mM Tris-HCl pH 7.5, 30 °C, 1.5 mM PMS, 40 µM DCPIP, 2% methanol
purified protein [5] = substrate: C[C@]12CC[C@H]3[C@@H](CCC4=CC(=O)CC[C@@]43C)[C@@H]1CC[C@@H]2O; experiment: purified protein; format: biochemical, Pimelobacter simplex; conditions: pH 7.5; 30.0 °C
purified protein [6] = substrate: C[C@]12CCC(=O)C=C1CC[C@@H]1[C@@H]2CC[C@@]2(C)[C@H]1CC[C@]2(C)O; experiment: purified protein; format: biochemical, Pimelobacter simplex; conditions: pH 7.5; 30.0 °C
purified protein [7] = substrate: CC(=O)[C@H]1CC[C@H]2[C@@H]3CCC4=CC(=O)CC[C@]4(C)[C@H]3CC[C@]12C; experiment: purified protein; format: biochemical, Pimelobacter simplex; conditions: 50 mM Tris-HCl pH 7.5, 30 °C, 1.5 mM PMS, 40 µM DCPIP, 2% methanol
purified protein [8] = substrate: CC(=O)[C@@]12O[C@@H]1C[C@H]1[C@@H]3CCC4=CC(=O)CC[C@]4(C)[C@H]3[C@H](O)C[C@@]12C; experiment: purified protein; format: biochemical, Pimelobacter simplex; conditions: 50 mM Tris-HCl pH 7.5, 30 °C, 1.5 mM PMS, 40 µM DCPIP, 2% methanol
purified protein [9] = substrate: C[C@]12CCC(=O)C=C1CC[C@@H]1[C@@H]2CC[C@]2(C)C(=O)CC[C@@H]12; experiment: purified protein; format: biochemical, Pimelobacter simplex; conditions: pH 7.5; 30.0 °C
purified protein [10] = substrate: CC(=O)[C@@]1(O)CC[C@H]2[C@@H]3CCC4=CC(=O)CC[C@]4(C)[C@H]3C(=O)C[C@@]21C; experiment: purified protein; format: biochemical, Pimelobacter simplex; conditions: 50 mM Tris-HCl pH 7.5, 30 °C, 1.5 mM PMS, 40 µM DCPIP, 2% methanol
purified protein [11] = substrate: C[C@]12CCC(=O)C=C1CC[C@@H]1[C@@H]2CC[C@]2(C)C(=O)CC[C@@H]12; experiment: purified protein; conditions: 50 mM Tris-HCl pH 7.5, 30 °C, 1.5 mM PMS, 40 µM DCPIP, 2% methanol

T1 sequence (P77815 entry or part of it): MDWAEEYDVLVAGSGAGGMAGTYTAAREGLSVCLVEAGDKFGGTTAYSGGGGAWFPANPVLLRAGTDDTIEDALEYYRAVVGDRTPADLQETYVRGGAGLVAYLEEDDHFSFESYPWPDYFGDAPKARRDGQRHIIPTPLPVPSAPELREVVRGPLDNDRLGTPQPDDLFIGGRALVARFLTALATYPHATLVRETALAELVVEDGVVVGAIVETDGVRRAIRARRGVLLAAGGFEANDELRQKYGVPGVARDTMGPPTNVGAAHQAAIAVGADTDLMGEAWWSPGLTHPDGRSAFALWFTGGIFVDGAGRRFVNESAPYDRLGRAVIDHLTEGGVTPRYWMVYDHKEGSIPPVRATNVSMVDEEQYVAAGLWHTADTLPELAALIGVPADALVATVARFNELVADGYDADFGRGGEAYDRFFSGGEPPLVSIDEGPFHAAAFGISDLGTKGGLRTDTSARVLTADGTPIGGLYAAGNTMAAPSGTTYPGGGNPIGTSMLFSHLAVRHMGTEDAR

Molecule	Km (purified protein [3]) [µM]	kcat (purified protein [3]) [s⁻¹]	kcat/Km (purified protein [3]) [M⁻¹ s⁻¹]	Km (purified protein [4]) [µM]	kcat (purified protein [4]) [s⁻¹]	kcat/Km (purified protein [4]) [M⁻¹ s⁻¹]	Km (purified protein [5]) [µM]	kcat/Km (purified protein [5]) [M⁻¹ s⁻¹]	Km (purified protein [6]) [µM]	kcat/Km (purified protein [6]) [M⁻¹ s⁻¹]	Km (purified protein [7]) [µM]	kcat (purified protein [7]) [s⁻¹]	kcat/Km (purified protein [7]) [M⁻¹ s⁻¹]	Km (purified protein [8]) [µM]	kcat (purified protein [8]) [s⁻¹]	kcat/Km (purified protein [8]) [M⁻¹ s⁻¹]	Km (purified protein [9]) [µM]	kcat/Km (purified protein [9]) [M⁻¹ s⁻¹]	Km (purified protein [10]) [µM]	kcat (purified protein [10]) [s⁻¹]	also measured
C[C@]12CCC(=O)C=C1CC[C@H]1[C@@H]3CCC(=O)[C@@]3(C)CC[C@@]12O [9α-OH-AD, 9α-hydroxy-4-androstene-3,17-dione]	–	–	–	–	–	–	–	–	–	–	–	–	–	–	–	–	–	–	–	–	Km [1]: 145 ± 4.4 µM; Km [2]: 68.5 ± 7 µM
B1	42.85 ± 3.3	78	1.82e+06	75.93 ± 3.8	47.3 ± 1.5	620000	33.25 ± 4.2	3.7e+06	44.63 ± 2.8	1.66e+06	40.37 ± 3.7	87.1 ± 4.2	2.16e+06	149.15 ± 4.6	33.6 ± 2.1	230000	34.89 ± 2.5	3.28e+06	46.85 ± 0.9	62.1 ± 6.1	kcat/Km (purified protein [10]): 1.32e+06 M⁻¹ s⁻¹
B2	–	–	–	–	–	–	–	–	–	–	–	–	–	–	–	–	–	–	–	–	Km (purified protein [11]): 37.01 ± 1.8 µM; kcat (purified protein [11]): 101.2 ± 0.9 s⁻¹; kcat/Km (purified protein [11]): 2.74e+06 M⁻¹ s⁻¹
B3	50.04 ± 2.7	59.7	1.19e+06	95.08 ± 4.7	45.3 ± 3.5	480000	42.05 ± 4.3	1.89e+06	55.35 ± 3.1	1.03e+06	62.31 ± 4.8	53.5 ± 4.1	860000	228.26 ± 7.1	19.2 ± 4.5	80000	47.43 ± 1.9	1.29e+06	57.12 ± 2.8	55.2 ± 3.7	kcat/Km (purified protein [10]): 970000 M⁻¹ s⁻¹
